Assay results taken from patent publication US20150361164A1 (EVEC, published 2015).

How the values were obtained:
[1] = target: T1, HMGB1 C-terminal region synthetic peptide #9 EDEDEEEDDDDE; assay: dot blotting, peptide at 4 µg/spot, antibody at 1 µg/ml
T1 construct: Synthetic peptide (SIGMA-ALDRICH, PEPScreen), dotted at 4 µg/spot on nitrocellulose
T1 peptide: EDEDEEEDDDDE
Description: (§1) To identify the positions of amino acids where the epitope of EV007156 against HMGB1 was located from among those constituting the C-terminal end of HMGB1, peptide mapping was conducted. Namely, 9 types of 12-residue long amino acids at 3 residue intervals and the most C-terminal 8 residues, i.e., 10 peptides in total (#1. […] (SEQ ID NO: 51), #2. […] (SEQ ID NO: 52), #3. […] (SEQ ID NO: 53), #4. EEDEEEEEDEED (SEQ ID NO: 54), #5. DEEEEEDEEDED (SEQ ID NO: 55), #6. […] (SEQ ID NO: 56), #7. EEDEEDEDEEED (SEQ ID NO: 57), #8. […] (SEQ ID NO: 58), #9. […] (SEQ ID NO: 59), #10. […] (SEQ ID NO: 60)) were designed to cover all the amino acids constituting the C-terminal region of HMGB1. The peptides thus synthesized (SIGMA-ALDRICH, PEPScreen) were each dissolved at 4 mg/ml in a 0.1 M ammonium acetate solution and added dropwise at 4 μg/spot onto a nitrocellulose membrane. After drying, the membrane was blocked with 5% skimmed milk-TBST for 90 minutes. EV007156 was then reacted for 1 hour at a concentration of 1 μg/ml. Subsequently, HRP-labeled anti-human IgG antibody (MBL, #208) was reacted for 1 hour, followed by detection using ECL prime (GE Healthcare, RPN2232) (FIG. 18). […], and more particularly the most C-terminal 8 residues (#10. […] (SEQ ID NO: 60)).

[2] = target: T2, HMGB1 most C-terminal 8 residues synthetic peptide #10 EEEDDDDE; assay: as above
T2 construct: Synthetic peptide (SIGMA-ALDRICH, PEPScreen), dotted at 4 µg/spot on nitrocellulose
T2 peptide: EEEDDDDE
Description: as §1

B1: #10-22 humanized antibody EV007156 (antibody, human IgG1, lambda, V domains shown)
VH: EVQLVESGGGLVQPGGSLKLSCAASGFTFSNAAMYWVRQASGKGLEWVARIRTKPNNYATYYADSVKGRFTISRDDSKNTAYLQMNSLKTEDTAVYYCTAPRRTEGIVSSGVDYWGQGTLVTVSS
VL: YELTQPPSVSVSPGQTASITCSGDELPKRYAYWYQQKPGQSIVRVIYKDSERPSGIPERFSGSSSGTTATLTISGTQAEDEADYYCHSTYSDDKLPVFGGGTKLTVLG
notes: also called EV007156H + EV007156L
B1: binds [1]; binds [2].
